Data reported in publication PMC2710508, “A Peek into Tropomyosin Binding and Unfolding on the Actin Filament” (PLoS ONE, 2009).

Tests used:
Settings in all cases: both partners purified
[1] = target: T1, F-actin from chicken pectoral skeletal muscle (chicken, UniProt P68139 1-377); assay: differential scanning calorimetry; tropomyosin 15 µM and TnT 70–170 18 µM with phalloidin (36 µM) stabilized F-actin (24 µM), 100 mM NaCl, 10 mM Hepes pH 7.0, 2 mM MgCl2, 1 mM DTT; three heating scans at 1°C/min; peak of unfolding/dissociation of actin-bound tropomyosin
[2] = target: T1, F-actin from chicken pectoral skeletal …; assay: co-sedimentation; tropomyosin 0.1–10 µM with 0.12–12 µM troponin T 70–170 (1.2× molar excess) and 5 µM F-actin, 20°C, 250 mM NaCl, 10 mM TrisHCl pH 7.5, 2 mM MgCl2, 0.5 mM DTT; pellets and supernatants by SDS-PAGE and densitometry; apparent constant (Kapp) and Hill coefficient from a fit to the Hill equation
[3] = target: T1, F-actin from chicken pectoral skeletal …; assay: light scattering temperature scan; unlabeled tropomyosin 6 µM, TnT 70–170, phalloidin (27 µM) stabilized F-actin (18 µM), 100 mM NaCl, 10 mM sodium phosphate pH 7.5, 2 mM MgCl2, 1 mM DTT; 90° scattering at 245 nm, 20–65°C at 1°C/min; temperature of 50% decrease in scattering

Row | DSC ΔΔH (with minus without F-actin) [1] | Ka [2] | Binder | DSC TM of dissociation from F-actin (TM3) [1] | light scattering TM (half maximal dissociation from F-actin) [3]
1 | 60.2 kJ/mol | 1.83e+06 M⁻¹ | P2P3Shift tropomyosin (Y60A/L64A/L106A/A120L) (natural protein, striated muscle alpha-tropomyosin, rat, cDNA in pET11d, expressed with an unacetylated N-terminal Met; combines the P2Shift and P3Shift mutations; TnT 70-170 present in every actin experiment; source: E. coli BL21 (DE3), purified (ammonium sulfate fractionation, DE52 cellulose, hydroxylapatite)) MDAIKKKMQMLKLDKENALDRAEQAEADKKAAEDRSKQLEDELVSLQKKLKGTEDELDKASEAAKDAQEKLELAEKKATDAEADVASLNRRIQLVEEELDRAQERAATALQKLEEAEKALDESERGMKVIESRAQKDEEKMEIQEIQLKEAKHIAEDADRKYEEVARKLVIIESDLERAEERAELSEGKCAELEEELKTVTNNLKSLEAQAEKYSQKEDKYEEEIKVLSDKLKEAETRAEFAERSVTKLEKSIDDLEDELYAQKLKYKAISEELDHALNDMTSI | 44.4 °C | –
2 | – | – | tropomyosin P3Shift C190S/L113C, unlabeled (natural protein, striated muscle alpha-tropomyosin, rat, cDNA in pET11d, expressed with an unacetylated N-terminal Met; Unlabeled form used for light scattering; source: E. coli BL21 (DE3), purified (ammonium sulfate fractionation, DE52 cellulose, hydroxylapatite)) not shown | – | 41.9 °C
3 | – | – | tropomyosin P2Shift C190S/L71C, unlabeled (natural protein, striated muscle alpha-tropomyosin, rat, cDNA in pET11d, expressed with an unacetylated N-terminal Met; Unlabeled form used for light scattering; source: E. coli BL21 (DE3), purified (ammonium sulfate fractionation, DE52 cellulose, hydroxylapatite)) not shown | – | 40.7 °C
